This note sets out measurements from patent publication US20180265882, “PLANTS WITH INCREASED SEED SIZE” (THE INSTITUTE OF GENETICS AND DEVELOPMENTAL BIOLOGY, published 2018).

For data set [1], the target named is T1, SOD7 (NGAL2, At3g11580) (Arabidopsis thaliana, UniProt Q8RYD3 SEQ:1-267).
T1 sequence: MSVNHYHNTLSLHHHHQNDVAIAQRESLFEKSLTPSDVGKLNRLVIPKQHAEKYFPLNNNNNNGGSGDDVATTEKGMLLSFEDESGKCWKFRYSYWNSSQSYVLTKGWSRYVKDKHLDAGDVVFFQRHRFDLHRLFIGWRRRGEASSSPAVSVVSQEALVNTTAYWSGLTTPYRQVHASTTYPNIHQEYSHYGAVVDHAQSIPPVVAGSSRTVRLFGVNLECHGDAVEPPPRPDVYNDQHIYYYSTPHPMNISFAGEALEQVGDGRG
The experiment in a line: EMSA; binding reduced by unlabeled probe A. The settings on record: tags: N-terminal MBP fusion (pMAL-C2), expressed in E. coli BL21(DE3), amylose purified; label: biotin. How it is done:
(§1) (A) Expression dynamics of SOD7 and KLU in pER8-SOD7 transgenic plants treated with β-estradiol for 0, 4 and 8 hours. Means were calculated from three biological samples. Values are given as mean±SD. **, P<0.01, compared with the expression level of KLU and SOD7 at 0 hour, respectively (Student's t-test). (B) A 2-kb promoter region of KLU upstream of its ATG codon contains a CACTTG sequence. PF1 and PF2 represent PCR fragments used for ChIP-quantitative PCR analysis. A and A-m indicate the wild-type probe and the mutated probe used in the EMSA essay, respectively. […] Chromatin from 35S:GFP and 35S:GFP-SOD7 transgenic plants was immunoprecipitated by anti-GFP, and the enrichment of the fragments was determined by quantitative real-time PCR. The ACTIN7 promoter was used as a negative control. The fold enrichment was normalized to the ACTIN7 amplicon, set at 1. Means were calculated from three biological samples. Values are given as mean±SD. **, P<0.01, compared with 35S:GFP transgenic plants (Student's t-test). (D) Direct interaction between SOD7 and the KLU promoter determined by EMSA. […] The retarded DNA-protein complex was reduced by competition using the unlabeled probe A.
(§2) The coding sequence of SOD7 was cloned into the NdeI and BamHI sites of the pMAL-C2 vector to generate the construct MBP-SOD7. […]

Data set [2] deals with T1, SOD7 (NGAL2, At3g11580). The data set is described as follows: EMSA; mutated CACTTG, failed to bind. The settings on record: tags: N-terminal MBP fusion (pMAL-C2), expressed in E. coli BL21(DE3), amylose purified; label: biotin. The procedure:
as §1, §2

B1: KLU promoter probe A (dsDNA)
DNA 1: TTCTACTACACTTGCTCTCTGTA
DNA 2: TACAGAGAGCAAGTGTAGTAGAA
For B1, the binding result with SOD7 (NGAL2, At3g11580) [1] is “binds”.

B2: KLU promoter probe A-m (dsDNA)
DNA 1: TTCTACTAACACCTCTCTCTGTA
DNA 2: TACAGAGAGAGGTGTTAGTAGAA
For B2, the binding result with SOD7 (NGAL2, At3g11580) [2] is “no binding”.
